Laboratory results reported in patent EP1127148B1.

Target: TAG-72 positive bovine submaxillary mucin (BSM) (bovine)
Test: relative affinity constant from competition RIA on BSM

humanized monoclonal antibody CC49 (HuCC49)
Ka: 3.2e+08 M⁻¹
